{"source": "patent US7662770", "target": "EphA2 receptor tyrosine kinase, endogenous in MCF-10A and MDA-MB-231 human mammary epithelial cells (UniProt P29317)", "sequence (P29317 whole entry, looked up)": "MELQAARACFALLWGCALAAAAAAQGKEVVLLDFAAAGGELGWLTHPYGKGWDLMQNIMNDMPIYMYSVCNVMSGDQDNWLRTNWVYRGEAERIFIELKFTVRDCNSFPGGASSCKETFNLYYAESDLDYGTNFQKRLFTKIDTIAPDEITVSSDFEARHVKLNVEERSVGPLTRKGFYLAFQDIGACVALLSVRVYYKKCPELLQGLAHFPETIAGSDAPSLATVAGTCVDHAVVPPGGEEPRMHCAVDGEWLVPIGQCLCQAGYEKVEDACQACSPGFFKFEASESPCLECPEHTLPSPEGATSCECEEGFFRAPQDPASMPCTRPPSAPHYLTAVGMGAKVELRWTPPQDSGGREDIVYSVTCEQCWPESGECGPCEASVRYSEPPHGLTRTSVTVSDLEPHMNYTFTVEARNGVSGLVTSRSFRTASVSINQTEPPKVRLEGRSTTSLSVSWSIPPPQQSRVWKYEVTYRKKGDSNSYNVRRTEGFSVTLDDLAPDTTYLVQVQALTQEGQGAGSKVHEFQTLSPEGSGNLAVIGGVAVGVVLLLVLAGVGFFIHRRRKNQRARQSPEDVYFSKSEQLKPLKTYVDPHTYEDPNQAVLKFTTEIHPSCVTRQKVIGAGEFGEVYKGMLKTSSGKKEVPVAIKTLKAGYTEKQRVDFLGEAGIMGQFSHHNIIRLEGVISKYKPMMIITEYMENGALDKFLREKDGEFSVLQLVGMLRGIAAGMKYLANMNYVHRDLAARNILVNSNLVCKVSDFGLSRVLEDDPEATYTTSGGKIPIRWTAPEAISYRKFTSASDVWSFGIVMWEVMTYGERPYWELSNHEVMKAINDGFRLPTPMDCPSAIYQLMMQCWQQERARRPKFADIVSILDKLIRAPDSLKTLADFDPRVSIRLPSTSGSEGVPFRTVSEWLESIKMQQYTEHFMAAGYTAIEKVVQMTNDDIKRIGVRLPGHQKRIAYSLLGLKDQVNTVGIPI", "data": [{"substance": "purified LMW-PTP protein (used in the in vitro dephosphorylation assays)", "values": [{"measurement": "dephosphorylation of immunoprecipitated EphA2 (Western blot with PY20 and 4G10)", "result": "purified LMW-PTP could dephosphorylate EphA2 in a dose and time-dependent manner"}]}]}
